Measured values published in paper PMC7531523.

Assays:
[1] = molecular target: epOX40.24.1 scFv displayed on yeast (human); experiment: flow cytometry on cells
[2] = molecular target: epOX40.24.2 scFv displayed on yeast (human); experiment: flow cytometry on cells
[3] = molecular target: rOX40.24.1 scFv displayed on yeast (human); experiment: flow cytometry on cells
[4] = molecular target: rOX40.24.2 scFv displayed on yeast (human); experiment: flow cytometry on cells
[5] = molecular target: epOX40.24.1 full-length human IgG1 (human); experiment: BLI
[6] = molecular target: epOX40.24.2 full-length human IgG1 (human); experiment: BLI
[7] = molecular target: rOX40.24.2 full-length human IgG1 (human); experiment: BLI

Kd [1]: 3.8 nM | Kd [2]: 7.9 nM | Kd [3]: 2.2 nM | Kd [4]: 2 nM | Kd [5]: 14.4 nM | Kd [6]: 3.8 nM | Kd [7]: 6.9 nM
B1: tumor necrosis factor receptor superfamily member 4 (OX40), extracellular, soluble portion (domain or fragment)
chain: LHCVGDTYPSNDRCCHECRPGNGMVSRCSRSQNTVCRPCGPGFYNDVVSSKPCKPCTWCNLRSGSERKQLCTATQDTVCRCRAGTQPLDSYKPGVDCAPCPPGHFSPGDNQACKPWTNCTLAGKHTLQPASNSSDAICEDRDPPATQPQETQGPPARPITVQPTEAWPRTSQGPSTRPVEVPGGRA
modifications: biotin (Sulfo-NHS-LC-biotin) for staining of yeast; not stated for BLI and SPR
